What was measured:
[1] = biological target: the molecule itself; assay: SEC; Superdex 200 5/150 GL, PBS pH 7.4 with 1 mM DTT, room temperature; high hPrx1 concentrations (e.g. 20 uM): peak at 3.9 min
[2] = biological target: the molecule itself; assay: SEC; Superdex 200 5/150 GL, PBS pH 7.4 with 1 mM DTT, room temperature; low hPrx1 concentrations (e.g. 0.5 uM): peak at 5.2 min

B1: human peroxiredoxin 1 (enzyme, UniProt Q06830 1-199, looked up)
chain: MSSGNAKIGHPAPNFKATAVMPDGQFKDISLSDYKGKYVVFFFYPLDFTFVCPTEIIAFSDRAEEFKKLNCQVIGASVDSHFCHLAWVNTPKKQGGLGPMNIPLVSDPKRTIAQDYGVLKADEGISFRGLFIIDDKGILRQITVNDLPVGRSVDETLRLVQAFQFTDKHGEVCPAGWKPGSDTIKPDVQKSKEYFSKQK
notes: human peroxiredoxin 1 (hPrx1), recombinant; The protein is an obligate homodimer; five dimers form a ring-shaped decamer; It was used in the reduced state, with 1 mM DTT in all measurements; also called hPrx1; human Prx1; source: E. coli BL21(DE3), purified from bacterial lysates; reduced with 10 mM DTT before all experiments
stoichiometry N [1]: 10
stoichiometry N [2]: 2

Reference: paper PMC9100220, “Fluorescence Lifetime Phasor Analysis of the Decamer–Dimer Equilibrium of Human Peroxiredoxin 1” (International Journal of Molecular Sciences, 2022)
